Assay results: US20050048073A1, “Methods of determining west nile virus epitopes and method of using the same” (priority 2001, published 2005)
Where “and” joins values, the source holds several entries; their conditions need not be identical. Equal entries are not always repeated.

Legend:
HLA B*07 = HLA B*07 (Homo sapiens, UniProt P01889); assay: T2B7 binding assay (stabilization of HLA B*07 on TAP-deficient T2 cells, FACS); settings: for Avg. Fold Inc. @ 200: fold increase over background; for Avg. Fold Inc. @ 200 / Avg. MFI 200: peptide at 200 ug/ml; for Avg. MFI 200: mean fluorescence index; for Binding number (binding score): numerical sum of all the positive assays; for Binding strength: rated strong, moderate, weak or none by number of significantly positive wells
Protocol: Triplicate wells of peptide at 10, 20, 200 ug/ml were evaluated in each of the T2 B7 binding assays; each assay was repeated 4 times. […] The “binding score” column provides the numerical sum of all the positive assays in the binding summary column.
The T2B7 binding assay method is well described in the literature and operational in the laboratory. This assay relies on the ability of exogenously added peptides to stabilize the class I MHC/beta 2 microglobulin structure on the surface of transporters associated with antigen processing (TAP)-deficient cell lines. Briefly, HLA B*07 T2 cell lines were prepared by incubating overnight (16 hours) at 26° C. Just prior to the binding assay these cells were washed twice in serum-free media. Solutions of the test peptides at three concentrations (final concentration of 10, 20, and 200 ug/ml in RPMI 1640 (Sigma, St. Louis, Mo.)) were plated in triplicate wells of a 96 well, round-bottom assay plate (Beckton Dickinson, Lincoln Park, N.J.). Sixteen wells containing cells without peptide were included in each plate, serving as the no-peptide control (background control) for the assay.
100,000 cells were added to each well, and the plates were then incubated for four hours at 37° C., 5% CO2 The plates were then spun at 110×g for 10 minutes at 4° C., supernatant is discarded and the remaining cells are re-suspended. One hundred uL of diluted primary antibody-containing hybridoma supernatant (1:10 dilution of ME1 supernatant produced by HB-119 cell line from ATCC) in staining buffer (PBS, 5% FBS, 0.1% sodium azide) was added to all of the wells except 8 wells per assay plate (each containing 200 ug/ml of one study peptide, these wells served as controls for non-specific binding of secondary antibody). Primary antibody was incubated with the peptide-pulsed cells for 30 minutes at 4° C. After washing three times, the cells were re-suspended, and 100 uL of a 1:250 dilution of FITC-labeled secondary antibody (FITC labeled Goat F(ab′)2 Anti-mouse IgG (H+L) from Caltag) in staining buffer were added to all wells. The plates were incubated for 30 minutes at 4° C., and subsequently washed three times. The contents of each well were then resuspended in 200 uL of fixing buffer (PBS, 1% paraformaldehyde), and aliquoted into FACS tubes.
The 16 negative control wells in each plate contained no peptide but did contain cells, primary antibody and secondary antibody. An additional set of triplicate wells was plated with peptide at the highest concentration (200 ug/ml), but no primary antibody was added to the wells to control for non-specific secondary antibody binding. One positive control peptide (the known B*07 binder) was tested at three concentrations (in triplicate wells) in each assay plate.
Following fixing, the presence of fluorescent secondary antibody on the surface of T2 cells (gated to the appropriate cell size) was measured at 488 nm on a FACScan flow cytometer (Becton-Dickinson, New Jersey). The mean linear fluorescence […] of 10,000 events was measured and compared to the background fluorescence of cells plated in (no peptide) control wells. A positive response was defined as a 10% increase over baseline MLF and p<0.05, in more than one concentration in each of four assays. The assays are repeated 4 times for each concentration of peptide. Each peptide was tested in a total of 36 wells (triplicate wells, three concentrations, four assays).

HLA B*07 (human) [1] = assay: T2B7 HLA stabilisation assay, flow cytometry, peptide at 200 ug/ml
HLA B*07 (human) [2] = assay: T2B7 HLA stabilisation assay, flow cytometry, 10/20/200 ug/ml, four assays; settings: for Binding results (total of four assays): scale: of 3 concentrations positive

Molecule | Avg. Fold Inc. @ 200 (HLA B*07) | Avg. MFI 200 (HLA B*07) | Binding number (binding score) (HLA B*07) | Binding strength (HLA B*07) | also measured
APAYSFNCLG [WNB7 005] | 1.2 | 743.5 |  |  | Binding number (binding score) (HLA B*07; listed as 0005): 8; Binding number (binding score) (HLA B*07; listed as WNVB7 0005): 8; Binding strength (HLA B*07; listed as WNVB7 0005): moderate (stabilized HLA B*07 to a moderate degree (receiving binding scores of 6 to 8))
AVKDELNTLL [WNB7 004] | 1.0 | 842.5 | 0 | non-binder (did not bind (binding score of 2)) | 
EPPEGVKYVL [WNB7 013] | 1.1 | 681.7 |  |  | Binding number (binding score) (HLA B*07; listed as WNVB7 0013): 6; Binding strength (HLA B*07; listed as WNVB7 0013): moderate (stabilized HLA B*07 to a moderate degree (receiving binding scores of 6 to 8))
GPGHEEPQLV [WNB7 011] | 1.0 | 848.9 | 2 | non-binder (did not bind (binding score of 2)) | 
GPGHKARVLA [HIV-1 B7 1291, reference compound] | 2.2 and 1.5 and 1.6 | 1423.8 and 1370.9 and 1003.9 | 8 and 9 | moderate (stabilized HLA B*07 to a moderate degree (receiving binding scores of 6 to 8)) | Binding number (binding score) (HLA B*07; listed as WC 1291): eight to nine; Binding strength (HLA B*07; listed as WC 1291): moderately well
IPAGFEPEML [WNB7 008] | 1.9 | 1207.4 | 10 | strong (stabilized HLA B7 on the surface of T2B7 cells at more than two concentrations in all four replicate assays, receiving a total binding score of 10, 11, 11, 12, and 12) | affinity to B*07 in vitro compared with previously published B*07 epitope GPGHKARVLA (from HIV-1) (HLA B*07): much greater affinity
KPTGSASSLV [WNB7 015] | 1.7 | 1070.2 |  |  | Binding number (binding score) (HLA B*07; listed as WNVB7 0015): 6; Binding strength (HLA B*07; listed as WNVB7 0015): moderate (stabilized HLA B*07 to a moderate degree (receiving binding scores of 6 to 8))
NPMILAAGLI [WNB7 007] | 1.1 | 944.6 | 2 | non-binder (did not bind (binding score of 2)) | 
PEDIDCWCTK [WNVB7 3399] | 1.1 | 990.3 | 1 | non-binder (did not bind (binding score of 2)) | stabilization of HLA B*07 on the surface of T2B7 cells (HLA B*07): did not stabilize T2B7 to a significant degree
PETPQGLAKI [WNVB7 3403] | 1.0 | 588.9 | 0 | non-binder (did not bind (binding score of 2)) | stabilization of HLA B*07 on the surface of T2B7 cells (HLA B*07): did not stabilize T2B7 to a significant degree
PFPESNSPIS [WNVB7 3411] | 1.0 | 626.7 | 1 | non-binder (did not bind (binding score of 2)) | stabilization of HLA B*07 on the surface of T2B7 cells (HLA B*07): did not stabilize T2B7 to a significant degree
PRTNTILEDN [WNVB7 3415] | 0.9 | 778.6 | 0 | non-binder (did not bind (binding score of 2)) | stabilization of HLA B*07 on the surface of T2B7 cells (HLA B*07): did not stabilize T2B7 to a significant degree
RPAADGRTVM [WNB7 023] | 1.5 | 979.1 | 12 | strong (stabilized HLA B7 on the surface of T2B7 cells at more than two concentrations in all four replicate assays, receiving a total binding score of 10, 11, 11, 12, and 12) | affinity to B*07 in vitro compared with previously published B*07 epitope GPGHKARVLA (from HIV-1) (HLA B*07): much greater affinity
RPQRHDEKTL [WNB7 019] | 2.8 | 1644.6 | 11 | strong (stabilized HLA B7 on the surface of T2B7 cells at more than two concentrations in all four replicate assays, receiving a total binding score of 10, 11, 11, 12, and 12) | affinity to B*07 in vitro compared with previously published B*07 epitope GPGHKARVLA (from HIV-1) (HLA B*07): much greater affinity
RPRWIDARVY [WNB7 017] | 1.9 | 1714.0 | 11 | strong (stabilized HLA B7 on the surface of T2B7 cells at more than two concentrations in all four replicate assays, receiving a total binding score of 10, 11, 11, 12, and 12) | affinity to B*07 in vitro compared with previously published B*07 epitope GPGHKARVLA (from HIV-1) (HLA B*07): much greater affinity
SPHRVPNYNL [WNB7 020] | 2.5 | 1607.9 | 12 | strong (stabilized HLA B7 on the surface of T2B7 cells at more than two concentrations in all four replicate assays, receiving a total binding score of 10, 11, 11, 12, and 12) | affinity to B*07 in vitro compared with previously published B*07 epitope GPGHKARVLA (from HIV-1) (HLA B*07): much greater affinity
TPAAPSYTLK [WNB7 009] | 1.5 | 954.5 |  |  | Binding number (binding score) (HLA B*07; listed as WNVB7 0009): 8; Binding strength (HLA B*07; listed as WNVB7 0009): moderate (stabilized HLA B*07 to a moderate degree (receiving binding scores of 6 to 8))
TPGLRCLNLD [WNB7 024] | 1.0 | 849.6 | 2 | non-binder (did not bind (binding score of 2)) | 
VPCRGQDELV [WNB7 010] | 1.0 | 658.6 | 4 | weak (weak binders (binding score of 4)) | 
VPGTKIAGML [WNB7 018] | 1.7 | 1088.4 |  |  | Binding number (binding score) (HLA B*07; listed as WNVB7 0018): 6; Binding strength (HLA B*07; listed as WNVB7 0018): moderate (stabilized HLA B*07 to a moderate degree (receiving binding scores of 6 to 8))
AVKDELNTLL [WNVB7 0004] |  |  |  |  | Avg. Fold Inc. @ 200 (fold over background) (HLA B*07 (human) [1]): 1; Avg. MFI 200 (HLA B*07 (human) [1]): 842 MFI; Binding number (binding score) (HLA B*07 (human) [2]): 0; Binding results (total of four assays) (HLA B*07 (human) [2]; in 4 assays): 0
AAKKKGASLL [WNVB7 0006] |  |  |  |  | Avg. Fold Inc. @ 200 (fold over background) (HLA B*07 (human) [1]): 1.2; Avg. MFI 200 (HLA B*07 (human) [1]): 708 MFI; Binding number (binding score) (HLA B*07 (human) [2]): 4; Binding results (total of four assays) (HLA B*07 (human) [2]; in 4 assays): 1
PFPESNSPIS [WNVB7 3411] |  |  |  |  | Avg. Fold Inc. @ 200 (fold over background) (HLA B*07 (human) [1]): 1; Avg. MFI 200 (HLA B*07 (human) [1]): 627 MFI; Binding number (binding score) (HLA B*07 (human) [2]): 1; Binding results (total of four assays) (of 3 concentrations positive, in 1 assay) (HLA B*07 (human) [2]): 1
NPMILAAGLI [WNVB7 0007] |  |  |  |  | Avg. Fold Inc. @ 200 (fold over background) (HLA B*07 (human) [1]): 1.1; Avg. MFI 200 (HLA B*07 (human) [1]): 945 MFI; Binding number (binding score) (HLA B*07 (human) [2]): 2; Binding results (total of four assays) (HLA B*07 (human) [2]; in 2 assays): 1
PRTNTILEDN [WNVB7 3415] |  |  |  |  | Avg. Fold Inc. @ 200 (fold over background) (HLA B*07 (human) [1]): 0.9; Avg. MFI 200 (HLA B*07 (human) [1]): 779 MFI; Binding number (binding score) (HLA B*07 (human) [2]): 0; Binding results (total of four assays) (HLA B*07 (human) [2]; in 4 assays): 0
